From patent US20160137740A1 (AstraZeneca / MedImmune, published 2016) come the findings set out here.

In test [1] the target is T1, Recombinant human TNFRSF14 (HVEM) (human, UniProt Q92956 39-202, limits assumed).
T1 construct: Plate-adsorbed antigen of the ELISA
T1 sequence (looked up): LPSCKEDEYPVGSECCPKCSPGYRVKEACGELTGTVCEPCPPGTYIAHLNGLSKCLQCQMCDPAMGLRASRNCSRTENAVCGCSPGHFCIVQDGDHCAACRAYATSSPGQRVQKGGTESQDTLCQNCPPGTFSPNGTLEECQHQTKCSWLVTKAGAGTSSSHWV
Kind of test: ELISA, plate coated with a dilution series of the recombinant TNFRSF protein [panel A]. The procedure: (§1) An eight point, two-fold dilution series of each recombinant human TNFRSF protein was prepared after dilution of stock proteins to 5 μg/mL in PBS. Subsequently, 50 μL of each antigen dilution was transferred in duplicate to wells of a Nunc 96-well MaxiSorp flat bottom plate, and incubated overnight at 4° C. to adsorb proteins to the plate. Afterwards, plates were washed three times with PBS in a BioTek® plate washer to remove unbound protein. Anti OX40 mAb29, 9B12, and control antibodies were diluted in PBS to a final concentration of 10 μg/mL, and 50 μL of mAb were added to each well and incubated at room temperature for one hour to bind mAb to plate-bound protein. Thereafter, wells were washed with PBS/Tween-20 0.1% (volume/volume) using a BioTek® plate washer. HRP conjugated goat anti-human or goat anti-mouse secondary antibodies at 10 μg/mL was added to each well and incubated at room temperature for 1 hour. After three washes in PBS/Tween-20 0.1%, 50 μL of TMB substrate was added to each well and incubated at room temperature for 5 minutes to develop the colorimetric product. Reactions were stopped by adding 50 μL of 0.5 molar H₂SO₄ to wells, and plates read immediately at 450 nm using an Envision C plate reader for detection of the colorimetric product.

Test [2] has as its target T2, Recombinant human TNFRSF21 (DR6) (human, UniProt O75509 42-349, limits assumed).
T2 construct: Plate-adsorbed antigen of the ELISA
T2 sequence (looked up): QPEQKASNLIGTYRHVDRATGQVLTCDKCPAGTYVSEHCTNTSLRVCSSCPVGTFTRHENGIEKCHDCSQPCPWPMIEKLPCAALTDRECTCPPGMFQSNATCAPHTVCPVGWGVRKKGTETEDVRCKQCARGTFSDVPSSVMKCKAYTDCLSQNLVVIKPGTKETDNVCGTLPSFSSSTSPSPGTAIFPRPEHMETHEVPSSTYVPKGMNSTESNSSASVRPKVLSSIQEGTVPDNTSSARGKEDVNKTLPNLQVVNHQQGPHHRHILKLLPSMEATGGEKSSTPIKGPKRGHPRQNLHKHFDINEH
Described as above. As to the method: as §1

Test [3] deals with T3, Recombinant human TNFRSF11A (RANK) (human, UniProt Q9Y6Q6 30-212).
T3 construct: Plate-adsorbed antigen of the ELISA; also called CD265
T3 sequence (looked up): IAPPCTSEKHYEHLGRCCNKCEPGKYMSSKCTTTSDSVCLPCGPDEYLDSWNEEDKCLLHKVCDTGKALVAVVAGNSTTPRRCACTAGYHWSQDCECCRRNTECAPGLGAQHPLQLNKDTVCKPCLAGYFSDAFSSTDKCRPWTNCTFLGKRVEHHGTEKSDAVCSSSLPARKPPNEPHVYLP
Described as above. As to the method:
as §1

The target of test [4] is T4, Recombinant human TNFRSF6 (FAS) (human, UniProt P25445 26-173).
T4 construct: Plate-adsorbed antigen of the ELISA
T4 sequence (looked up): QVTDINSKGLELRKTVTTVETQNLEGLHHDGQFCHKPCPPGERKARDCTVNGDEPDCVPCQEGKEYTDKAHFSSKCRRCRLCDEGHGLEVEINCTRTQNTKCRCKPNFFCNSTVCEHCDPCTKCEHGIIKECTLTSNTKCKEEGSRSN
Described as above. The procedure:
as §1

Test [5] deals with T5, Recombinant human TNFRSF1β (TNFRII) (human, UniProt P20333 23-257).
T5 construct: Plate-adsorbed antigen of the ELISA; also called TNFR2; TNFRSF1B
T5 sequence (looked up): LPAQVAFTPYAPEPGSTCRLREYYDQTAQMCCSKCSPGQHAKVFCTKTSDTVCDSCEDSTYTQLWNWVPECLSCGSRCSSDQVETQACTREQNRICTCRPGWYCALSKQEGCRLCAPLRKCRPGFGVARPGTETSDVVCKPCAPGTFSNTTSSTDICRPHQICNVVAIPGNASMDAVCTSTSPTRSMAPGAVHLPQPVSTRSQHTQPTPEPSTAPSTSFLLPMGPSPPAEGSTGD
The test is described as above. The procedure: as §1

For test [6], the target named is T6, Recombinant human TNFRSF5 (CD40) (human, UniProt P25942 21-193).
T6 construct: Plate-adsorbed antigen of the ELISA
T6 sequence (P25942 21-193 limits assumed): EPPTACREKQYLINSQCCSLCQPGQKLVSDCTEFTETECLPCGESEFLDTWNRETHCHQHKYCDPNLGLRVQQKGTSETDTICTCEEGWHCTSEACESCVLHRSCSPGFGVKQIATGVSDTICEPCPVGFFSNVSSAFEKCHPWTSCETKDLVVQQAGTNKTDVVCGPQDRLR
Described as above. The procedure:
as §1

Test [7] has as its target T7, Recombinant human TNFRSF11B (OPG) (human, UniProt O00300 22-401, limits assumed).
T7 construct: Plate-adsorbed antigen of the ELISA; also called osteoprotegerin
T7 sequence (looked up): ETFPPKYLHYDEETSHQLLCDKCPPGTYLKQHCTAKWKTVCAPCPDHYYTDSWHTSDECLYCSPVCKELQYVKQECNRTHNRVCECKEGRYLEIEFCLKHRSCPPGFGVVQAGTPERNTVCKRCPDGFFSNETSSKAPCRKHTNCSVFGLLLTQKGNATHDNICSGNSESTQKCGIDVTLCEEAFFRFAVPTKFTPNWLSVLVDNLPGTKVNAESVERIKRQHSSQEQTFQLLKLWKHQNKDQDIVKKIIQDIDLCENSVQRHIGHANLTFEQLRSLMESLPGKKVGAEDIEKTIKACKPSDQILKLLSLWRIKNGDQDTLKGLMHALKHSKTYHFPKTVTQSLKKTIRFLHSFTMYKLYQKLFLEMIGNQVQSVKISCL
The description is as above. As to the method: as §1

Test [8] concerns the target T8, Recombinant human TNFRSF16 (NGFR) (human, UniProt P08138 29-250).
T8 construct: Plate-adsorbed antigen of the ELISA
T8 sequence (looked up): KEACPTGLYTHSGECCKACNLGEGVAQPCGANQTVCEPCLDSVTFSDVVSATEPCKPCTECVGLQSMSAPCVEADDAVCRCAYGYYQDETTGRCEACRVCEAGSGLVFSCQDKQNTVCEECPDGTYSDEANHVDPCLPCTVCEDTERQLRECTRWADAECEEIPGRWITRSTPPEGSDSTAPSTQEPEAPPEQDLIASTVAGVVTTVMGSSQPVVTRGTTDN
The description is as above. The procedure:
as §1

For test [9], the target named is T9, Recombinant human TNFRSF3 (LTβR) (human, UniProt P36941 28-227, limits assumed).
T9 construct: Plate-adsorbed antigen of the ELISA
T9 sequence (P36941 28-227 limits assumed): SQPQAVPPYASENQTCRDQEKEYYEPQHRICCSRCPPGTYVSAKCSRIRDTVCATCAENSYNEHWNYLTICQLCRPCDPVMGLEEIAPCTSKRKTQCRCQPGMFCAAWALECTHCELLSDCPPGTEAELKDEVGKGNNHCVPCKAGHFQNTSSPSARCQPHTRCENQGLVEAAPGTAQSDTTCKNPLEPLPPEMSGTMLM
The description is as above. The procedure:
as §1

The target of test [10] is T10, Recombinant human TNFRSF9 (CD137) (human, UniProt Q07011 24-186, limits assumed).
T10 construct: Plate-adsorbed antigen of the ELISA
Described as above. As to the method:
as §1

The target in test [11] is T11, Recombinant human TNFRSF18 (GITR) (human, UniProt Q9Y5U5 26-162, limits assumed).
T11 construct: Plate-adsorbed antigen of the ELISA
T11 sequence (looked up): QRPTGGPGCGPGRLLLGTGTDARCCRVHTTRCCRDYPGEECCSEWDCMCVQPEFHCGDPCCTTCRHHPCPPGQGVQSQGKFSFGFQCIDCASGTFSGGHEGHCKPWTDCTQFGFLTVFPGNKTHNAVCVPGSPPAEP
Described as above. The procedure: as §1

For another test, the target named is T12, Mouse OX40 (mouse, UniProt P47741 20-272).
T12 construct: also called mOX40; murine OX40
T12 sequence: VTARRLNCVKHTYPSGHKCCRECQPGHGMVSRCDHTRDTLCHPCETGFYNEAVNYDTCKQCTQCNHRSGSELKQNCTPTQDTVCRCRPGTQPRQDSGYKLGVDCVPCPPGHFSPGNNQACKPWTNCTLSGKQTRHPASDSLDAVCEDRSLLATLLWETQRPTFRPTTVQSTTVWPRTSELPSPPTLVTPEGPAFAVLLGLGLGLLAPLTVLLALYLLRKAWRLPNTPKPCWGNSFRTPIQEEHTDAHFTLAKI
Kind of test: flow cytometry on activated primary mouse CD4+ T cells. As to the method: Mouse CD4⁺ T cells (150,000 per well in 100 μL complete medium) were cultured overnight in 96-well plates coated with 2 μg/mL each hamster anti-mouse CD3 and hamster anti-mouse CD28 antibodies to activate T cells and induce OX40 expression. Activated CD4⁺ T cells were removed from the incubation plate and 100,000 cells were transferred to each well of a non-tissue culture-treated 96-well round-bottom plate for binding assays and washed once with FACS buffer. Binding was performed with 10 μg/mL of OX40mAb24, 9B12 and rat anti-mouse OX40, clone OX86 (positive control) antibodies each serially diluted 3-fold in FACS buffer for a 10-point data curve. For negative controls, 10 μg/mL R347 human IgG1, MOPC-21 mouse IgG1 or RTK2071 rat IgG1 were diluted 6-fold for a 3 point data curve. FACS buffer (50 μL) containing OX40mAb24, or antibodies, was added to CD4⁺ T cells in duplicate and incubated. Following primary incubation, cells were washed with 200 μL of 4° C. […] Following secondary antibody incubation, cells were washed with 4° C. FACS buffer (200 μL per wash) and suspended in 100 μL FACS buffer for flow cytometry analysis on a BD LSRII flow cytometer as described in Section 2.3.
In general terms: Flow cytometry measures light scatter and fluorescence of single cells or particles in a stream.

B1: OX40mAb29 (antibody, human IgG1, kappa)
heavy: QVQLQESGPGLVKPSQTLSLTCAVYGGSFSSGYWNWIRKHPGKGLEYIGYISYNGITYHNPSLKSRITINRDTSKNQYSLQLNSVTPEDTAVYYCARYKYDYDGGHAMDYWGQGTLVTVSSASTKGPSVFPLAPSSKSTSGGTAALGCLVKDYFPEPVTVSWNSGALTSGVHTFPAVLQSSGLYSLSSVVTVPSSSLGTQTYICNVNHKPSNTKVDKRVEPKSCDKTHTCPPCPAPEFEGGPSVFLFPPKPKDTLMISRTPEVTCVVVDVSHEDPEVKFNWYVDGVEVHNAKTKPREEQYNSTYRVVSVLTVLHQDWLNGKEYKCKVSNKALPASIEKTISKAKGQPREPQVYTLPPSREEMTKNQVSLTCLVKGFYPSDIAVEWESNGQPENNYKTTPPVLDSDGSFFLYSKLTVDKSRWQQGNVFSCSVMHEALHNHYTQKSLSLSPGK
light: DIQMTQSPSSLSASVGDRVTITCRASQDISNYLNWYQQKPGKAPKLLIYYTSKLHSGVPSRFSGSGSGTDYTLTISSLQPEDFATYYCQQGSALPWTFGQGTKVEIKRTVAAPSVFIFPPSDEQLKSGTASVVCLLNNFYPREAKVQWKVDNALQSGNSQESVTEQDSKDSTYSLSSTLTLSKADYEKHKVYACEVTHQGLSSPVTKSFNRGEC
notes: also called Anti OX40 mAb29; IgG1 triple mutant (IgG1-TM) version of OX40mAb24
In the case of B1, the binding result in test [1], in test [2], in test [3], in test [4], in test [5] and in test [6] was “no binding” each time. Moreover, the binding result in test [7], in [8], in [9], in test [10] and in test [11] was “no binding” in each case.

B2: Rat anti-mouse OX40, clone OX86 (antibody, V domains shown)
VH: QVQLKESGPGLVQPSQTLSLTCTVSGFSLTGYNLHWVRQPPGKGLEWMGRMRYDGDTYYNSVLKSRLSISRDTSKNQVFLKMNSLQTDDTAIYYCTRDGRGDSFDYWGQGVMVTVSS
VL: DIVMTQGALPNPVPSGESASITCRSSQSLVYKDGQTYLNWFLQRPGQSPQLLTYWMSTRASGVSDRFSGSGSGTYFTLKISRVRAEDAGVYYCQQVREYPFTFGSGTKLEIK
notes: Rat IgG1κ; also called anti-mouse CD134 (OX86 clone) antibody
Regarding B2, the binding result with Mouse OX40 was “binds”.
